Data published in the supplement of paper PMC10126150.
± gives the standard deviation of the averaged measurements.

System: ATP
Assay: switch fluorescence ratio, 500 uM ATP over buffer (Cy3 cluster intensity, sum of 5 cycles each) (fold (ratio)); higher = stronger signal-on switching upon ATP binding; sequences stand for … in TCGTCGGCAGCGTCAGATGTGTATAAGAGACAGTTTTTTTTTTTTTTTTTTTTTTTTT…TC
Details: aptamer strand: ATP DNA aptamer (quencher-CACCTGGGGGAGTATTGCGGAGGAAGG + anchor), 100 nM annealed; ATP concentration: 500 uM
Procedure, shortened: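 Cy3-labelled switching-strand clusters on a modified Illumina MiSeq flow-cell were annealed to 100 nM quencher-labelled ATP aptamer and imaged first in selection buffer, then after 15 min with 500 uM ATP at 22 °C. NaOH stripping and re-annealing separated each of five buffer/ATP cycles, and clusters outside 100-1000 RFU were excluded. The fluorescence ratio sums target-cycle Cy3 intensity over buffer-cycle Cy3 intensity per cluster and averages it per switch-domain sequence.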
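Also: ATP exposure 15 min at 22 °C before imaging.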

Work on CGGGCTTCTA yielded a switch fluorescence ratio of 1.04 ± 0.053.

TTGGTCCGGT showed a switch fluorescence ratio of 0.988 ± 0.018.

TTGTGGAGCT showed a switch fluorescence ratio of 0.999 ± 0.016.

In the case of ATACAATAGA, the switch fluorescence ratio is reported as 1.004 ± 0.0087.

Sequence TGGTGGAGGG has a switch fluorescence ratio of 1 ± 0.032.

TCTGATGGTG was tested, and the switch fluorescence ratio was 1.06 ± 0.039.

With CGGTGGGGGC the switch fluorescence ratio was 0.9806 ± 0.0057.

With GTTTGGCATG the switch fluorescence ratio was 1.003 ± 0.0051.

TCTTGGACGG gave a switch fluorescence ratio of 0.985 ± 0.021.

GCCCAGACGG showed a switch fluorescence ratio of 1.31 ± 0.41.

For GTAAGTTGGT, the switch fluorescence ratio was 1 ± 0.021.

TTTATGGCCC gave a switch fluorescence ratio of 1.01 ± 0.064.

For AAATTTAATC, the switch fluorescence ratio was 1.02 ± 0.034.

TTGTTAGTCT was tested, and the switch fluorescence ratio was 0.982 ± 0.024.

In the case of GCCTTTTGCG, the switch fluorescence ratio is reported as 1.01 ± 0.018.

Sequence TCATTTTCTT has a switch fluorescence ratio of 0.9688 ± 0.0049.

For CCAAGGCGGG, the switch fluorescence ratio was 1.04 ± 0.017.

Sequence TTTTAACTCG has a switch fluorescence ratio of 1.01 ± 0.023.

With CAAAAGGCAG the switch fluorescence ratio was 0.984 ± 0.048.

CGTCTTAAAG showed a switch fluorescence ratio of 1 ± 0.036.

In the case of AGGAGAGCTT, the switch fluorescence ratio is reported as 1.02 ± 0.012.

For TTTAAAGGAT, the switch fluorescence ratio was 1 ± 0.024.

Sequence CCGTTGGGGT has a switch fluorescence ratio of 1.11 ± 0.13.

Work on CTTAGCTTGC yielded a switch fluorescence ratio of 1.02 ± 0.054.

AGGCCGTCGT showed a switch fluorescence ratio of 1.043 ± 0.0064.

With GTGTAACCTG the switch fluorescence ratio was 1.01 ± 0.054.

In the case of ATAGATATAG, the switch fluorescence ratio is reported as 1.027 ± 0.0096.

Sequence GATGTCTCGA has a switch fluorescence ratio of 0.982 ± 0.079.

For TAGCGTAGAA, the switch fluorescence ratio was 0.993 ± 0.046.

ACCCATTGTA showed a switch fluorescence ratio of 1.064 ± 0.0071.

AATTGATAGG gave a switch fluorescence ratio of 0.982 ± 0.041.

For CATTTTGTCT, the switch fluorescence ratio was 1.018 ± 0.0047.

TATAGCATTA showed a switch fluorescence ratio of 1.04 ± 0.014.

In the case of CCTGAGGGCG, the switch fluorescence ratio is reported as 1.037 ± 0.01.

Work on AGATTATGCA yielded a switch fluorescence ratio of 1.01 ± 0.048.

CATGTCTGTA gave a switch fluorescence ratio of 1.

Sequence GGTTTAGGAG has a switch fluorescence ratio of 1.01 ± 0.062.

Sequence AGCTGAGTCT has a switch fluorescence ratio of 1.02 ± 0.034.

With GCGGGTGGCT the switch fluorescence ratio was 1.03 ± 0.019.

In the case of AGAGACCAGC, the switch fluorescence ratio is reported as 1.07 ± 0.028.

For GGCAGTAAGA, the switch fluorescence ratio was 1.03 ± 0.024.

In the case of CGAATCGGTA, the switch fluorescence ratio is reported as 0.969 ± 0.00014.

Work on TCGTTTTAGT yielded a switch fluorescence ratio of 0.985 ± 0.014.

For GGGCCCTTCG, the switch fluorescence ratio was 1.018 ± 0.0047.

GCAGGGGGCA was tested, and the switch fluorescence ratio was 1.024 ± 0.01.

For CGCTATTTTA, the switch fluorescence ratio was 1.04 ± 0.039.

With TAGAAGGGCC the switch fluorescence ratio was 0.976 ± 0.02.

In the case of AATGAAGAAG, the switch fluorescence ratio is reported as 1.17 ± 0.22.

ATGCGATGTA gave a switch fluorescence ratio of 1.04 ± 0.046.

CGCTGTGCGG gave a switch fluorescence ratio of 0.99 ± 0.052.

TATTGACGGA showed a switch fluorescence ratio of 1.006 ± 0.0096.

ATTAGCATCG gave a switch fluorescence ratio of 0.981 ± 0.026.

TTAATAGATT gave a switch fluorescence ratio of 0.998 ± 0.021.

For AGAGTGACGA, the switch fluorescence ratio was 1.008 ± 0.0061.

In the case of TCTGCTAAAA, the switch fluorescence ratio is reported as 0.973 ± 0.041.

TGAGCATAGT gave a switch fluorescence ratio of 1.026 ± 0.0023.

CGGGGGTAGG gave a switch fluorescence ratio of 1.03 ± 0.049.

With AGTCTGGGGA the switch fluorescence ratio was 0.99 ± 0.015.

For TTATATGGGG, the switch fluorescence ratio was 1 ± 0.018.

Work on AATGATTAGT yielded a switch fluorescence ratio of 0.998 ± 0.032.

For TCTTTACAAA, the switch fluorescence ratio was 1.03 ± 0.02.

For TGGGGGGAG, the switch fluorescence ratio was 1.0137 ± 0.00093.

GAGGGAAACA was tested, and the switch fluorescence ratio was 1.01 ± 0.017.

GCTAGCTAAG showed a switch fluorescence ratio of 1.034 ± 0.0011.

Sequence ATTCACTTGA has a switch fluorescence ratio of 1.08 ± 0.061.

TTATCAGTTG showed a switch fluorescence ratio of 1.01 ± 0.057.

With TTAGGTTAGA the switch fluorescence ratio was 0.993 ± 0.014.

In the case of TTAGGTCGGT, the switch fluorescence ratio is reported as 1.01 ± 0.0094.

TCAGAGGAAT showed a switch fluorescence ratio of 1.01 ± 0.0089.

In the case of GAGAGGGATT, the switch fluorescence ratio is reported as 1.03 ± 0.015.

With ATCGATTGT the switch fluorescence ratio was 0.973 ± 0.028.

For TGCCGTAGGG, the switch fluorescence ratio was 1.04 ± 0.041.

ATAAAGGTCG gave a switch fluorescence ratio of 1.06 ± 0.1.

With CAAGTGGCGG the switch fluorescence ratio was 0.969 ± 0.016.

Work on AACTTTAGTC yielded a switch fluorescence ratio of 0.994 ± 0.04.

Work on TTTTAGGAT yielded a switch fluorescence ratio of 1.004 ± 0.0021.

Work on TTGAAAAAGG yielded a switch fluorescence ratio of 0.968 ± 0.018.

Sequence CGTCGGGGCA has a switch fluorescence ratio of 0.964 ± 0.074.

GCGGGGGGCT gave a switch fluorescence ratio of 1.03 ± 0.041.

GGGTGCGCGT was tested, and the switch fluorescence ratio was 0.977 ± 0.011.

Work on AAGGGCTCAA yielded a switch fluorescence ratio of 1.02 ± 0.011.

With GGGCCCGAAT the switch fluorescence ratio was 0.992 ± 0.047.

AAGGTAAGAG was tested, and the switch fluorescence ratio was 0.999 ± 0.037.

For ATCGGATGTA, the switch fluorescence ratio was 1.016 ± 0.0084.

For CTTTAATTTT, the switch fluorescence ratio was 1.01 ± 0.055.

In the case of GAGTCTGGT, the switch fluorescence ratio is reported as 0.981 ± 0.036.

Work on AGCTCGCGTC yielded a switch fluorescence ratio of 0.981 ± 0.021.

Work on TGGGGTAATC yielded a switch fluorescence ratio of 1.03 ± 0.07.

Sequence AGGGCGGCTG has a switch fluorescence ratio of 0.985 ± 0.024.

TGAGTTGGGA showed a switch fluorescence ratio of 1.002 ± 0.0057.

Work on GGTGACGCAC yielded a switch fluorescence ratio of 1.62 ± 0.057.

AAGAGTAAGC gave a switch fluorescence ratio of 0.963 ± 0.013.

Sequence GGGAAAGGTT has a switch fluorescence ratio of 1.01 ± 0.026.

With ATTTGAGCTA the switch fluorescence ratio was 1.04 ± 0.023.

In the case of GGAATGGGTG, the switch fluorescence ratio is reported as 1 ± 0.057.

ATAGTAGGTC was tested, and the switch fluorescence ratio was 1.048 ± 0.0015.

Work on TTTTGTTGCT yielded a switch fluorescence ratio of 0.956 ± 0.037.

TTACAAGGTT was tested, and the switch fluorescence ratio was 1.02 ± 0.013.

GCTGGGGGTT showed a switch fluorescence ratio of 0.996 ± 0.059.

Work on GGCTGTTCGG yielded a switch fluorescence ratio of 0.988 ± 0.036.

Work on ACAGAAATGG yielded a switch fluorescence ratio of 1.014 ± 0.0011.

TAATTGAGAA was tested, and the switch fluorescence ratio was 0.986 ± 0.037.

For TTATAGGGAC, the switch fluorescence ratio was 1 ± 0.015.

Work on CCGGGGAACG yielded a switch fluorescence ratio of 1.08 ± 0.048.

Sequence TTCCGGGGAT has a switch fluorescence ratio of 1.04 ± 0.044.

For TGATGGCGGG, the switch fluorescence ratio was 0.9917 ± 0.0042.

CTTAGCCACT showed a switch fluorescence ratio of 1.036 ± 0.0065.

Work on GGGGGGGCAC yielded a switch fluorescence ratio of 1.01 ± 0.029.

GCATGGGTGG gave a switch fluorescence ratio of 1 ± 0.023.

Sequence GATTAAAAAT has a switch fluorescence ratio of 1.0123 ± 0.00055.

Work on CTTTGGTAGG yielded a switch fluorescence ratio of 0.992 ± 0.025.

GGAATAAGGG was tested, and the switch fluorescence ratio was 0.995 ± 0.015.

In the case of ACTATATTTA, the switch fluorescence ratio is reported as 1.034 ± 0.0063.

With GCAATAATTA the switch fluorescence ratio was 1.1 ± 0.046.

With AGGGGCGTGC the switch fluorescence ratio was 0.977 ± 0.015.

TTTTCTCGCT showed a switch fluorescence ratio of 0.967 ± 0.02.

Sequence ACAGATTAGT has a switch fluorescence ratio of 1 ± 0.024.

TATTTATTGT was tested, and the switch fluorescence ratio was 1.01 ± 0.008.

Sequence AAGATCATTG has a switch fluorescence ratio of 0.98 ± 0.041.

With TTTTGGTTGG the switch fluorescence ratio was 0.971 ± 0.028.

In the case of CATAGGTACA, the switch fluorescence ratio is reported as 1.089 ± 0.0035.

GATTTCCAGG was tested, and the switch fluorescence ratio was 1.2 ± 0.024.

For GGATGGTGTG, the switch fluorescence ratio was 0.977 ± 0.037.

GGGCCGGGGT was tested, and the switch fluorescence ratio was 0.993 ± 0.04.

Sequence ATCGGGGTAA has a switch fluorescence ratio of 1.04 ± 0.068.

GGGCAGCCTT gave a switch fluorescence ratio of 0.99337 ± 0.0002.

GGGGGAACTA gave a switch fluorescence ratio of 0.989 ± 0.019.

AAGCATAGGG showed a switch fluorescence ratio of 1.02 ± 0.015.

TTGACTGGAG was tested, and the switch fluorescence ratio was 1 ± 0.011.

Work on CAAGTTGTTT yielded a switch fluorescence ratio of 0.996 ± 0.021.

Work on AGATCTGCAT yielded a switch fluorescence ratio of 1.11 ± 0.019.

Sequence TCCGAGGGAT has a switch fluorescence ratio of 2.25 ± 1.3.

TTTTGCCTCC was tested, and the switch fluorescence ratio was 1.09 ± 0.035.

With ACCTCATTTG the switch fluorescence ratio was 1.067 ± 0.0049.

ATATGAAGGA gave a switch fluorescence ratio of 0.993 ± 0.013.

For GGATGCAGGA, the switch fluorescence ratio was 1.04 ± 0.042.

For TCGGGGGGAA, the switch fluorescence ratio was 1.06 ± 0.057.

ACGGAAGTTA gave a switch fluorescence ratio of 1.02 ± 0.025.

Sequence CGGAAGATAG has a switch fluorescence ratio of 1.027 ± 0.0066.

Sequence ATAGCATACG has a switch fluorescence ratio of 1.28 ± 0.047.

Work on ACTAGGGTCT yielded a switch fluorescence ratio of 1 ± 0.081.

ACCAGCTTTT gave a switch fluorescence ratio of 1.04 ± 0.03.

For CTAAACAGGG, the switch fluorescence ratio was 1.03 ± 0.011.

GGGAATGTTC showed a switch fluorescence ratio of 1.01 ± 0.014.

Sequence GAAATGAAGG has a switch fluorescence ratio of 0.973 ± 0.016.

GCTATACAGC showed a switch fluorescence ratio of 1.03 ± 0.049.

With TTACTCGCTG the switch fluorescence ratio was 1.07 ± 0.027.

TTATAATTAG gave a switch fluorescence ratio of 0.994 ± 0.046.

In the case of TACCACTTAA, the switch fluorescence ratio is reported as 1.03 ± 0.035.

Sequence TCGTTGTGTG has a switch fluorescence ratio of 0.981 ± 0.019.

For TAGAAGACAG, the switch fluorescence ratio was 0.996 ± 0.025.

Sequence AGTGGCATTA has a switch fluorescence ratio of 0.985 ± 0.028.

Work on CGAAAGGTTG yielded a switch fluorescence ratio of 0.939 ± 0.017.

With GTTCCCAGTT the switch fluorescence ratio was 0.997 ± 0.017.

In the case of TTTCGTTTAC, the switch fluorescence ratio is reported as 1.272 ± 0.0071.

For AAAATGGGGG, the switch fluorescence ratio was 1 ± 0.03.

GGGGTTATTT gave a switch fluorescence ratio of 0.988 ± 0.038.
